# Where a chain is given by its changes, count along the chain named. Numbers in names are those of the source.
# T1: asialofetuin (UniProt P12763 19-359, de-sialylated glycans)
# T1 construct: also called de-sialylated fetuin
# T1 sequence: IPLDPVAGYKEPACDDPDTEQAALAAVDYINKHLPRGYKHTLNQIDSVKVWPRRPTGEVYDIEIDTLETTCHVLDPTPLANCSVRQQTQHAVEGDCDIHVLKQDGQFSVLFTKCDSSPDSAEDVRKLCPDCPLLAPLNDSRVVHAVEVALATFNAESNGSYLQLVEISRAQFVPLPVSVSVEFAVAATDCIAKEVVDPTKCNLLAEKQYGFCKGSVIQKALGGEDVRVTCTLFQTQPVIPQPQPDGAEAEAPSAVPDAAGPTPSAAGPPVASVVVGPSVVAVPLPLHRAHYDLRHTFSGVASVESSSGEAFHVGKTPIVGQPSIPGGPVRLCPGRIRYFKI
# T2: horseradish peroxidase (horseradish, UniProt P00433 31-338)
# T2 construct: also called HRP
# T2 sequence: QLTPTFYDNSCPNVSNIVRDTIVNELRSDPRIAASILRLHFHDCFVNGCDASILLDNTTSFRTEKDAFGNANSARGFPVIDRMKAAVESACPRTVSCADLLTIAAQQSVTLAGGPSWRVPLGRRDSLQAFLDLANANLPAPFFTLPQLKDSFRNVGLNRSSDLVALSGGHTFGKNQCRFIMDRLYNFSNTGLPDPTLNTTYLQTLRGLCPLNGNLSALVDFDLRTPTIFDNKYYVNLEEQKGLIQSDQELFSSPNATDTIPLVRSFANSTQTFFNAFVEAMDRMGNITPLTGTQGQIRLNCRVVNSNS
# B1: Sia-3S1 Lectenz (NanB residues 30-697 with R193A, D270Q, A538V, E541D) (designed binder)
# chain: NELNYGQLSISPIFQGGSYQLNNKSIDISSLLLDKLSGESQTVVMKFKADKPNSLQALFGLSNSKAGFKNNYFSIFMRDSGEIGVEIRDAQKGINYLFSRPASLWGKHKGQAVENTLVFVSDSKDKTYTMYVNGIEVFSETVDTFLPISNINGIDKATLGAVNAEGKEHYLAKGSIDEISLFNKAISDQEVSTIPLSNPFQLIFQSGDSTQANYFRIPTLYTLSSGRVLSSIDARYGGTHQSKSKINIATSYSDDNGKTWSEPIFAMKFNDYEEQLVYWPRDNKLKNSQISGSASFIDSSIVEDKKSGKTILLADVMPAGIGNNNANKADSGFKEINGHYYLKLKKNGDNDFRYTVRENGVVYNETTNKPTNYTINDKYEVLEGGKSLTVEQYSVDFDSGSLRERHNGKQVPMNVFYKDSLFKVTPTNYIAMTTSQNRGESWEQFKLLPPFLGEKHNGTYLCPGQGLALKSSNRLIFATYTSGELTYLISDDSGQTWKKSSASIPFKNVTADAQMVELRDGVIRTFFRTTTGKIAYMTSRDSGETWSKVSYIDGIQQTSYGTQVSAIKYSQLIDGKEAVILSTPNSRSGRKGGQLVVGLVNKEDDSIDWKYHYDIDLPSYGYAYSAITELPNHHIGVLFEKYDSWSRNELHLSNVVQYIDLEINDLTK
# notes: also called Sia-31 [sic]; not shown: N-terminal hexa-histidine tag
# B2: Sia-PS1 Lectenz (NanB residues 30-697 with Y653F) (designed binder)
# chain: B1 chain with A164R, Q241D, V509A, D512E, Y624F
# Columns and labels:
# fetuin [1] = target: fetuin (UniProt P12763)
# [2] = target: 3'-sialyllactose-BSA (bovine)
# Chain of 3'-sialyllactose-BSA (bovine) (P02769 25-607 limits assumed): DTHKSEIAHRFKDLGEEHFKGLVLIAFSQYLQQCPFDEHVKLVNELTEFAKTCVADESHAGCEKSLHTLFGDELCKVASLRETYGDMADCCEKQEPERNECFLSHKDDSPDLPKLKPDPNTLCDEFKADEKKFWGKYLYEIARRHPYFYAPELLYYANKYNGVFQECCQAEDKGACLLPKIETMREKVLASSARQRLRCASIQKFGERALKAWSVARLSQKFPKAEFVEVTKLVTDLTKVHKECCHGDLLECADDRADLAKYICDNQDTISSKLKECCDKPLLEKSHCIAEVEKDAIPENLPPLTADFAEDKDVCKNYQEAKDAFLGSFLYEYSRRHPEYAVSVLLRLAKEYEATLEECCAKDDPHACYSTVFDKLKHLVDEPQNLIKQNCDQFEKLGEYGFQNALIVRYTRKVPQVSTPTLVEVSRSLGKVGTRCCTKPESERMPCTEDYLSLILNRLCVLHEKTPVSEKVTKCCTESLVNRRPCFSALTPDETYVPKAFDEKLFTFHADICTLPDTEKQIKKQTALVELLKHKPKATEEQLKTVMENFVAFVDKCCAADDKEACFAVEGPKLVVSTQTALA
# [3] = target: 3'-sialyllactose-BSA (bovine); experiment: LAC, Sia-3S1 column, 100 µg loaded
# fetuin [4] = target: fetuin (UniProt P12763); experiment: LAC, Sia-3S1 coupled to Sepharose column, 100 µg fetuin loaded
# [5] = target: 3'-sialyllactose-BSA (bovine); experiment: LAC, Sia-3S1 column, 50 µg loaded, 10 mM EPPS pH 7.5 with 110 mM NaCl
# [6] = target: proteins of MCF7 cell-free extract; experiment: LAC, Sia-PS1 column, elution with 3′SL and 6′SL
# [7] = target: proteins of MCF7 cell-free extract; experiment: LAC, Sia-PS1 column, approximately 500 µg CFE loaded
# [8] = target: proteins of MCF7 cell-free extract; experiment: LAC, Sia-PS1 column, about 1.5 mg MCF7 proteins circulated at 4 °C overnight
# asialofetuin = target: T1, asialofetuin; experiment: Western blot, Sia-3S1 as probe, anti-poly-His-HRP detection
# horseradish peroxidase = target: T2, horseradish peroxidase; experiment: Lectenz affinity chromatography (LAC), Sia-PS1 coupled to Sepharose column
molecule,measurement,setting,value
"Sia-3S1 Lectenz (NanB residues 30-697 with R193A, D270Q, A538V, E541D) (designed binder)",percent of bound fetuin competitively eluted by 3′SL,fetuin [1],100%
same,percent of bound fetuin competitively eluted by 6′SL,fetuin [1],50%
same,3'SL-BSA Elution (amount of bound 3'SL-BSA eluted from the column),[2],45 µg
same,amount in flow through,[3],5 µg
same,amount bound to the column,fetuin [4],85 µg
same,amount that did not bind to the column,[5],5 µg
Sia-PS1 Lectenz (NanB residues 30-697 with Y653F) (designed binder),percent of total proteins bound to the column,[6],10%
same,amount of bound proteins (elution peak),[7],30 µg
same,amount of unbound proteins (flow-through peak),[7],319 µg
same,amount of protein in eluted peak,[8],207 µg
same,percent of loaded proteins in eluted peak,[8],13.8%
B1,binding result,asialofetuin,no binding (tested: 1 µM)
B2,binding result,horseradish peroxidase,no binding

# Reference: patent US20210009975A1 (UNIVERSITY OF GEORGIA RESEARCH FOUNDATION, published 2021)
